The subject of the series is NS5BΔ21 (viral RNA-dependent RNA polymerase) (Hepatitis C virus). Kind of series: competition (filter binding). As to conditions: 5 mM HEPES pH 7.9, 2 mM MgCl2, 25 mM KCl, 37 °C, 30 min; nitrocellulose dot-blot filter binding. Aptamer:CRE Kd values (Table 2) are RNA-RNA and not listed.

Data on one substance can be found in article PMC6331917.

Regarding HCV-CRE194, the binding signal worked out at 75.4 % complex.
